ChEMBL document CHEMBL2074311, “ATP-dependent para-aminohippurate transport by apical multidrug resistance protein MRP2” (Kidney Int, 2000)

Tests used:
[1] = substrate: Nc1ccc(C(=O)NCC(=O)O)cc1; assay: TP_TRANSPORTER: uptake in membrane vesicle from MRP1-expressing HeLa cells; format: functional, cell membranes
[2] = substrate: Nc1ccc(C(=O)NCC(=O)O)cc1; assay: TP_TRANSPORTER: uptake in membrane vesicles from MRP2-expressing HEK cells; format: functional, cell membranes, HEK293, Membrane vesicle

Protein | Km [1] [µM] | Km [2] [µM]
Multidrug resistance-associated protein 1 (Homo sapiens) (protein) MALRGFCSADGSDPLWDWNVTWNTSNPDFTKCFQNTVLVWVPCFYLWACFPFYFLYLSRHDRGYIQMTPLNKTKTALGFLLWIVCWADLFYSFWERSRGIFLAPVFLVSPTLLGITMLLATFLIQLERRKGVQSSGIMLTFWLVALVCALAILRSKIMTALKEDAQVDLFRDITFYVYFSLLLIQLVLSCFSDRSPLFSETIHDPNPCPESSASFLSRITFWWITGLIVRGYRQPLEGSDLWSLNKEDTSEQVVPVLVKNWKKECAKTRKQPVKVVYSSKDPAQPKESSKVDANEEVEALIVKSPQKEWNPSLFKVLYKTFGPYFLMSFFFKAIHDLMMFSGPQILKLLIKFVNDTKAPDWQGYFYTVLLFVTACLQTLVLHQYFHICFVSGMRIKTAVIGAVYRKALVITNSARKSSTVGEIVNLMSVDAQRFMDLATYINMIWSAPLQVILALYLLWLNLGPSVLAGVAVMVLMVPVNAVMAMKTKTYQVAHMKSKDNRIKLMNEILNGIKVLKLYAWELAFKDKVLAIRQEELKVLKKSAYLSAVGTFTWVCTPFLVALCTFAVYVTIDENNILDAQTAFVSLALFNILRFPLNILPMVISSIVQASVSLKRLRIFLSHEELEPDSIERRPVKDGGGTNSITVRNATFTWARSDPPTLNGITFSIPEGALVAVVGQVGCGKSSLLSALLAEMDKVEGHVAIKGSVAYVPQQAWIQNDSLRENILFGCQLEEPYYRSVIQACALLPDLEILPSGDRTEIGEKGVNLSGGQKQRVSLARAVYSNADIYLFDDPLSAVDAHVGKHIFENVIGPKGMLKNKTRILVTHSMSYLPQVDVIIVMSGGKISEMGSYQELLARDGAFAEFLRTYASTEQEQDAEENGVTGVSGPGKEAKQMENGMLVTDSAGKQLQRQLSSSSSYSGDISRHHNSTAELQKAEAKKEETWKLMEADKAQTGQVKLSVYWDYMKAIGLFISFLSIFLFMCNHVSALASNYWLSLWTDDPIVNGTQEHTKVRLSVYGALGISQGIAVFGYSMAVSIGGILASRCLHVDLLHSILRSPMSFFERTPSGNLVNRFSKELDTVDSMIPEVIKMFMGSLFNVIGACIVILLATPIAAIIIPPLGLIYFFVQRFYVASSRQLKRLESVSRSPVYSHFNETLLGVSVIRAFEEQERFIHQSDLKVDENQKAYYPSIVANRWLAVRLECVGNCIVLFAALFAVISRHSLSAGLVGLSVSYSLQVTTYLNWLVRMSSEMETNIVAVERLKEYSETEKEAPWQIQETAPPSSWPQVGRVEFRNYCLRYREDLDFVLRHINVTINGGEKVGIVGRTGAGKSSLTLGLFRINESAEGEIIIDGINIAKIGLHDLRFKITIIPQDPVLFSGSLRMNLDPFSQYSDEEVWTSLELAHLKDFVSALPDKLDHECAEGGENLSVGQRQLVCLARALLRKTKILVLDEATAAVDLETDDLIQSTIRTQFEDCTVLTIAHRLNTIMDYTRVIVLDKGEIQEYGAPSDLLQQRGLFYSMAKDAGLV | 372 | –
ATP-binding cassette sub-family C member 2 (Homo sapiens) (protein) MLEKFCNSTFWNSSFLDSPEADLPLCFEQTVLVWIPLGYLWLLAPWQLLHVYKSRTKRSSTTKLYLAKQVFVGFLLILAAIELALVLTEDSGQATVPAVRYTNPSLYLGTWLLVLLIQYSRQWCVQKNSWFLSLFWILSILCGTFQFQTLIRTLLQGDNSNLAYSCLFFISYGFQILILIFSAFSENNESSNNPSSIASFLSSITYSWYDSIILKGYKRPLTLEDVWEVDEEMKTKTLVSKFETHMKRELQKARRALQRRQEKSSQQNSGARLPGLNKNQSQSQDALVLEDVEKKKKKSGTKKDVPKSWLMKALFKTFYMVLLKSFLLKLVNDIFTFVSPQLLKLLISFASDRDTYLWIGYLCAILLFTAALIQSFCLQCYFQLCFKLGVKVRTAIMASVYKKALTLSNLARKEYTVGETVNLMSVDAQKLMDVTNFMHMLWSSVLQIVLSIFFLWRELGPSVLAGVGVMVLVIPINAILSTKSKTIQVKNMKNKDKRLKIMNEILSGIKILKYFAWEPSFRDQVQNLRKKELKNLLAFSQLQCVVIFVFQLTPVLVSVVTFSVYVLVDSNNILDAQKAFTSITLFNILRFPLSMLPMMISSMLQASVSTERLEKYLGGDDLDTSAIRHDCNFDKAMQFSEASFTWEHDSEATVRDVNLDIMAGQLVAVIGPVGSGKSSLISAMLGEMENVHGHITIKGTTAYVPQQSWIQNGTIKDNILFGTEFNEKRYQQVLEACALLPDLEMLPGGDLAEIGEKGINLSGGQKQRISLARATYQNLDIYLLDDPLSAVDAHVGKHIFNKVLGPNGLLKGKTRLLVTHSMHFLPQVDEIVVLGNGTIVEKGSYSALLAKKGEFAKNLKTFLRHTGPEEEATVHDGSEEEDDDYGLISSVEEIPEDAASITMRRENSFRRTLSRSSRSNGRHLKSLRNSLKTRNVNSLKEDEELVKGQKLIKKEFIETGKVKFSIYLEYLQAIGLFSIFFIILAFVMNSVAFIGSNLWLSAWTSDSKIFNSTDYPASQRDMRVGVYGALGLAQGIFVFIAHFWSAFGFVHASNILHKQLLNNILRAPMRFFDTTPTGRIVNRFAGDISTVDDTLPQSLRSWITCFLGIISTLVMICMATPVFTIIVIPLGIIYVSVQMFYVSTSRQLRRLDSVTRSPIYSHFSETVSGLPVIRAFEHQQRFLKHNEVRIDTNQKCVFSWITSNRWLAIRLELVGNLTVFFSALMMVIYRDTLSGDTVGFVLSNALNITQTLNWLVRMTSEIETNIVAVERITEYTKVENEAPWVTDKRPPPDWPSKGKIQFNNYQVRYRPELDLVLRGITCDIGSMEKIGVVGRTGAGKSSLTNCLFRILEAAGGQIIIDGVDIASIGLHDLREKLTIIPQDPILFSGSLRMNLDPFNNYSDEEIWKALELAHLKSFVASLQLGLSHEVTEAGGNLSIGQRQLLCLGRALLRKSKILVLDEATAAVDLETDNLIQTTIQNEFAHCTVITIAHRLHTIMDSDKVMVLDNGKIIECGSPEELLQIPGPFYFMAKEAGIENVNSTKF | – | 880
